Where two headings read alike, the source gives them in different places. Blank lines part the entries; values can stand above or below the molecule they belong to.
Experiments:
[1] = target: human BCMA his tag protein (Acrobiosystems, BCA-H522y) (human) (UniProt Q02223); assay: comp. ELISA, competitor biotin-APRIL (ligand signal), Ab 1.218 ug/mL
[2] = target: human BCMA his tag protein (Acrobiosystems, BCA-H522y) (human) (UniProt Q02223); assay: comp. ELISA, competitor biotin-APRIL (ligand signal), Ab 4.875 ug/mL
[3] = target: human BCMA his tag protein (Acrobiosystems, BCA-H522y) (human) (UniProt Q02223); assay: comp. ELISA, competitor biotin-APRIL (ligand signal), Ab 19.5 ug/mL
[4] = target: human BCMA his tag protein (Acrobiosystems, BCA-H522y) (human) (UniProt Q02223); assay: comp. ELISA, competitor biotin-BAFF (ligand signal), Ab 78 ug/mL
[5] = target: human BCMA his tag protein (Acrobiosystems, BCA-H522y) (human) (UniProt Q02223); assay: comp. ELISA, competitor biotin-APRIL (ligand signal), Ab 78 ug/mL
[6] = target: human BCMA his tag protein (Acrobiosystems, BCA-H522y) (human) (UniProt Q02223); assay: comp. ELISA, competitor biotin-BAFF (ligand signal), Ab 19.5 ug/mL
[7] = target: human BCMA his tag protein (Acrobiosystems, BCA-H522y) (human) (UniProt Q02223); assay: comp. ELISA, competitor biotin-BAFF (ligand signal), Ab 4.875 ug/mL
[8] = target: human BCMA his tag protein (Acrobiosystems, BCA-H522y) (human) (UniProt Q02223); assay: comp. ELISA, competitor biotin-BAFF (ligand signal), Ab 1.218 ug/mL
[9] = target: T1, human BCMA his tag protein (Acrobiosystems, BCA-H522y) (human, UniProt Q02223 1-54); assay: comp. ELISA, competitor biotin-APRIL (ligand signal), Ab 78 ug/mL
T1 construct: Bought protein; also called BCMA/TNFR-His; human recombinant BCMA his tag; not shown: his tag
T1 sequence (looked up): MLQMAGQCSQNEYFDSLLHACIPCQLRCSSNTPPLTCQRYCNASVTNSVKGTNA
Protocol: (§1) Plates (Corning) were coated with 2 μg/mL human BCMA his tag protein (Acrobiosystems, BCA-H522y) overnight at 4° C. After blocking and washing, 50 μL diluted antibodies (78 μg/mL, 19.5 μg/mL, 4.875 μg/mL, 1.218 μg/mL) and 50 μL biotin-labeled 1 μg/mL APRIL (Acrobiosystems, APL-H82F5) or 1.25 μg/mL BAFF (Acrobiosystems, BAF-H82F3) ligand were added to each well, and incubated at 37° C. for 1 hour. After washing 3 times, 100 μL HRP-labeled streptavidin (Biolegend, 405210) diluted 1:2000 was added to each well, and incubated at 37° C. for 30 minutes. After washing, 100 μL TMB substrate (Abeam, ab171524) was added to each well and developed for 5 minutes and the reaction was stopped by 3M HCl. The absorbance value at […] was read using a microplate reader (Tecan, SPARK).

[10] = target: T2, human BCMA full-length protein on cells (human, UniProt Q02223 1-184); assay: flow cytometry competition on CHO-K1/BCMA cells; antibody titrated against biotin-APRIL, PE streptavidin readout
T2 construct: whole, on cells; also called CHO-K1/BCMA; BCMA on RPMI8226, Jeko-1, Daudi cells
T2 sequence (looked up): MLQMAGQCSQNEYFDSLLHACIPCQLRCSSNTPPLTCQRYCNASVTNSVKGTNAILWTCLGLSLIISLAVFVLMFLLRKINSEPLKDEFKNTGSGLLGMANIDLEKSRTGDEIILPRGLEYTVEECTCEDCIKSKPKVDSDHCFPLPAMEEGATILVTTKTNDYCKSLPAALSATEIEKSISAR
Protocol: (§2) In a 96-well non-adsorption deep-well plate, the purified antibody and the control antibody were diluted to 1000 nM with DPBS, and then serially diluted to 8 concentration with 3-fold dilution. Biotin-APRIL was diluted to 4 μg/mL with DPBS. 50 μL the antibody diluted in the previous step or DPBS (Blank, Blank-PE tube), respectively, was added to the wells of a non-adsorption 96-well plate having 5×10⁵ CHO-K1/BCMA cells that overexpressed human BCMA, and then the 50 μL diluted APRIL in the previous step was added and mixed, incubated at 4° C. for 40 min. After washing once with pre-cooled DPBS, 150 μL PE Streptavidin (Biolegend, 405210) diluted with DPBS at 1:500 was added to each well, the cells were resuspended, and incubated at 4° C. for 30 min. After 30 minutes, centrifuged at 220 g for 5 minutes at 4° C., the supernatant was discarded, 200 μL pre-cooled DPBS washing solution was added to each well, the cells were resuspended by gently pipetting with a multichannel pipette, centrifuged at 220 g for 5 minutes, the supernatant was discarded, and the washing step was repeated one time. After 2 times of washing, the cells were resuspended in DPBS and detected by a flow analyzer (Beckman, Cytoflex). […]

[11] = target: T2, human BCMA full-length protein on cells; assay: as above; remark: listed apart in the source
Protocol: as §2

[12] = target: T1, human BCMA his tag protein …; assay: comp. ELISA, competitor biotin-BAFF (ligand signal), Ab 78 ug/mL
Protocol: as §1

[13] = target: T1, human BCMA his tag protein …; assay: comp. ELISA, competitor biotin-APRIL (ligand signal), Ab 4.875 ug/mL
Protocol: as §1

[14] = target: T1, human BCMA his tag protein …; assay: comp. ELISA, competitor biotin-APRIL (ligand signal), Ab 19.5 ug/mL
Protocol: as §1

[15] = target: T1, human BCMA his tag protein …; assay: comp. ELISA, competitor biotin-BAFF (ligand signal), Ab 1.218 ug/mL
Protocol: as §1

[16] = target: T1, human BCMA his tag protein …; assay: comp. ELISA, competitor biotin-BAFF (ligand signal), Ab 4.875 ug/mL
Protocol: as §1

[17] = target: T2, human BCMA full-length protein on cells; assay: flow cytometry on RPMI8226 cells, anti-human IgG PE [A&B) A]
Protocol: The EC50 of the antibody was calculated by fitting the curve.

[18] = target: T1, human BCMA his tag protein …; assay: comp. ELISA, competitor biotin-BAFF (ligand signal), Ab 19.5 ug/mL
Protocol: as §1

[19] = target: T1, human BCMA his tag protein …; assay: comp. ELISA, competitor biotin-APRIL (ligand signal), Ab 1.218 ug/mL
Protocol: as §1

OD450 [1]: 2.89 OD450
OD450 [2]: 3.07 OD450
OD450 [3]: 2.99 OD450
OD450 [4]: 3.24 OD450
OD450 [5]: 3.04 OD450
OD450 [6]: 3.28 OD450
OD450 [7]: 3.29 OD450
OD450 [8]: 3.38 OD450
Molecule: Isotype-2 (antibody)

OD450 [9]: 0.05 OD450
IC50 [10]: 89.6 nM
IC50 [11]: 81.8 nM
OD450 [12]: 0.03 OD450
OD450 [13]: 2.9 OD450
OD450 [14]: 0.31 OD450
OD450 [15]: 3.39 OD450
OD450 [16]: 3.32 OD450
EC50 [17]: 5.7 nM
OD450 [18]: 0.31 OD450
OD450 [19]: 3.1 OD450
B1: BMK1 (scFv)
scFv: DIVLTQSPASLAVSLGKRATINCRASESVSVIGAHLIHWYQQKPGQPPKLLIYLASNLETGVPARFSGSGSGTDFTLTISSLQAEDAAIYYCLQSRIFPRTFGGGTKLEIKGSTSGSGKPGSGEGSTKGQVQLVQSGSELKKPGASVKVSCKASGYTFTDYSINWVRQAPGQGLEWMGWINTETREPAYAYDFRGRFVFSLDTSVSTAYLQISSLKAEDTAVYYCARDYSYAMDYWGQGTLVTVSS
notes: also called positive control antibody; BMK control antibody
